Data set [1] has as its target HIV-1 p24 capsid protein (Human immunodeficiency virus 1, UniProt P04591 P04591:133-363). The data set can be described thus: negative control protein; only aspecific fluorescence recovery, graphene oxide assay. The conditions noted are these: tags: E. coli derived; RayBiotech 212-10004; label: 5'-FAM. As for the experimental part: Once the quenched signal was stabilized, a fixed concentration of the target protein was added to the aptamer-GO mix (5 nM aptamer+0.5 ng/μL GO), and the recovery in quenched signal was recorded over time.
As negative control, a non-target protein at the same concentration (HIV cap protein P24) was added to the aptamer-GO mix.
Using 0.005% PEG in the buffer system, and 5 nM Fam-H2.1.2 with 0.5 ng/μL GO, the recovery of quenched signal was recorded after adding 50 nM of target protein (CotE) and 50 nM negative control protein (P24).

In data set [2] the target is CotE (rCotE LS25, N281-F712) (Clostridium difficile). Description: SPR. The following applies: tags: His-tagged (Ni-NTA). As for the experimental part:
(§1) For CotE D2, CotE H2 and CotEC chitinase, aptamers were spotted on a gold surface at a concentration of 5 μM in PBS at a volume of approximately 10 nL in triplicate. Negative aptamers of the same length as the positive aptamers were spotted in the same manner, also in triplicate. Protein was then injected over the chip at a volume of 200 μL, with a flow rate of 50 μL/min in a Horiba (OpenPlex) surface plasmon resonance imaging (SPRi) instrument. Resonance due to binding was obtained by subtracting total resonance on the negative sequences from total resonance on the positive sequences. Disassociation values were computed with the following equation: dx/dt˜−kd*x, wherein dx/dt is the derivative of resonance values as a function of time and x is the resonance value for any given time point. Association values were computed with the following equation: dx/dt˜ka*c*Rmax−(ka*c+kd)*x, where x is the resonance due to binding at specific time points, c is the concentration of injectant, and Rmax is the maximum resonance observed.
(§2) Surface plasmon resonance imaging (SPRi) analysis of binding was performed with the various aptamers immobilized on a surface while the protein was flowed over at various concentrations.

For data set [3], the target named is T1, CotA-His6 (Clostridium difficile, UniProt Q186G8 SEQ:1-305).
T1 sequence: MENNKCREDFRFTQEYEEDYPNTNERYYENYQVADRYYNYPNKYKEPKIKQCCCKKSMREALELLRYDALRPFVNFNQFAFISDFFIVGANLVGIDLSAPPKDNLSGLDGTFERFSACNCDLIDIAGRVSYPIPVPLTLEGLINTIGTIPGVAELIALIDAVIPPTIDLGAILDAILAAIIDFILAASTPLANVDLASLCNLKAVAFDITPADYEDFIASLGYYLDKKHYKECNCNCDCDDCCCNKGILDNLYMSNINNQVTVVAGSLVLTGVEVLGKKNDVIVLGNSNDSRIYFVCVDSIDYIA
Description: SPR; 1.84E-08; protein immobilized. The following applies: tags: His6. As to the method: (§3) For CotA C1, the protein was immobilized on a hydrogel chip with EDC-mediated conjugation between primary amines on the protein (side chains on residues) and carboxylic acid groups on the surface of the chip. A protein of similar size was immobilized in the same manner as a negative control. […] For CdeC D1, the protein was received as aggregated, insoluble balls of protein. The binding assay was performed by incubating fluorescently labeled aptamers (FAM) with the protein, and then spinning the tubes down in a microcentrifuge to remove unbound. The pellet was resuspended in selection buffer and spun down again. Bound aptamers were eluted by adding 6 M urea, and spinning again, retaining the supernatant. The aptamers were cleaned up with PCR cleanup columns and the fluorescence was read on a Tecan Sapphire II fluorometer. Excitation was at 497 nm, and emission was at 515 nm. The amount of fluorescence measured in the eluant was divided by the total amount of fluorescence of all fractions.

In data set [4] the target is CotEC chitinase (rCotEC, AB45, aa381-712 of CotE) (Clostridium difficile). The data set can be described thus: SPR. The conditions noted are these: tags: His-tagged (Ni-NTA). As for the experimental part: as §1, §2
The target in data set [5] is CdeM (Clostridium difficile). Description: pulldown. The conditions noted are these: tags: His-tagged (Ni-NTA). As for the experimental part: (§4) The binding assay was performed by incubating fluorescently labeled aptamers (FAM) with the protein, and then spinning the tubes down in a microcentrifuge to remove unbound. The pellet was resuspended in selection buffer and spun down again. Bound aptamers were eluted by adding 6 M urea, and spinning again, retaining the supernatant. The aptamers were cleaned up with PCR cleanup columns and the fluorescence was read on a Tecan Sapphire II fluorometer. Excitation was at 497 nm, and emission was at 515 nm. The amount of fluorescence measured in the eluant was divided by the total amount of fluorescence of all fractions.
(§5) D1 CdeC: The original aptamer sequence was SEQ ID NO: 6, which binds to the CdeC protein from C. difficile. […] Two aptamers, D1.1 (SEQ ID NO: 38) and D1.2 (SEQ ID NO: 39), were designed to stabilize the structure observed in the analysis of the original sequence (FIG. 11). The CdeC protein self-aggregates in aqueous solutions making surface plasmon resonance analysis difficult. The protein forms large aggregates that are insoluble. The protein aggregates were combined as suspensions with the aptamers in solutions, allowed to incubate at room temperature for 15 min, and then spun down in a microcentrifuge to remove unbound aptamer. The complexes were washed with the appropriate selection buffer (50 mM Tris pH 7.6, 2.5 mM MgCl₂, 2.5 mM CaCl₂, 85 mM KOAc, 0.01% Tween 20, 0.01% BSA) once and the spin process was repeated. Finally, the bound aptamer was eluted from the protein structures with the addition of 6M urea. The protein aggregates were spun again, and this time the supernatant containing the eluted aptamers was retained. The aptamers were synthesized with a FAM label on the 5′ end for this analysis.
(§6) The CdeM protein is similar to the CdeC protein in that it forms aggregated balls when purified. An amount of protein equivalent to 1 E8 particles with 1 μM of each of the Em2, Em2.1 and Em2.2 aptamers in a total volume of 50 μL in the CdeM buffer was used. The mixture was allowed to incubate for 15 min at room temperature, then centrifuged. The supernatant was removed, and the pellet resuspended in CdeM buffer. This was centrifuged again and the wash process repeated once more.

For data set [6], the target named is T1, CotA-His6. The data set can be described thus: SPR; 7.82E-08; protein immobilized. The conditions noted are these: tags: His6; optimized potential G-quartet. As to the method: as §3
Data set [7] concerns the target CdeC (Clostridium difficile). The data set can be described thus: pulldown. The conditions noted are these: tags: His-tagged (Ni-NTA). As to the method:
as §4, §5, §6

The target in data set [8] is T1, CotA-His6. Description: SPR; 5.21E-08; protein immobilized. The following applies: tags: His6. As for the experimental part:
as §3

Drawing on patent US20220177886, “[…] AGAINST CLOSTRIDIUM […], COMPOSITIONS COMPRISING […] AGAINST CLOSTRIDIUM […] AND METHODS OF USING THE SAME” (Biovector, Inc., published 2022), this text covers binding result and Kd for 15 molecules.

As to CTTGACCTTTGGAATGGGTGGGAGGGAGGGTATCCACAGGTCAACC (ssDNA) [FAM-CotE H2.1.2], in data set [1], the binding result was “no binding”.
On to CTTGACCTTTGGAATGGGTGGGAGGGAGGGTATCCACAGGTCAACC (ssDNA) [CotE H2.1.2], for which binding in data set [2] was characterised by a dissociation constant (Kd) of 7.52 nM.
Take ACTCAAGGCCGTGGACTGGTCGGGTTTGGATTCGGCAGATGAATCACT (ssDNA) [CotA C1.1]: the Kd in data set [3] amounted to 18.4 nM.

B1: CotEC Chitinase D11.1 (ssDNA)
DNA: AACTGCCTGGTAAATCGATGACCGCTGCCTCGCCTGAGTAATCATCGTACTATCCACAGGTC
The molecule B1 had a Kd in data set [4] of 295 nM.

B2: CotE D2.1 (ssDNA)
DNA: ACTACTCAATGCTCGACATTTCCGCCCCGACGGCCCTCCTAGTGAGGGGAGAGTAGA
Molecule B2 gave a Kd in data set [2] of 34.1 nM.

B3: CdeM Em2.1 (ssDNA)
DNA: CTCAATGCCTTCCATTCACCTACCGAGCTAAGCGTTCGACTTAGGTCTGTACT
B3: in data set [5], the binding result is recorded as “binds”.

B4: CotE H2.1.1 (ssDNA)
DNA: CTTGACCTTTGGAATGGGTAGGGAGGGAGGGATACTATCCACAGGTCAACC
For B4, in data set [2], the Kd is more than 250 nM.
In turn, ACCCGTGGGACTGGGTCGGGTCGGG (ssDNA) [CotA C1.3] gave a Kd in data set [6] of 78.2 nM.

B5: CotE D2.2 (ssDNA)
DNA: ACTACTCAATGCTCGACATTTCCGCCCCGACGGCCCTCCTAGTGATGGGGAGAGTAGA
In the case of B5, in data set [2], binding was put at a Kd of 207 nM. In other words, the sub-micromolar range.
Same read-out and setting: the value for AATGGGTGGGAGGGATGGGTACTA (ssDNA) [CotE H2.2] was more than 250 nM.

B6: CdeM E2/Em2 (ssDNA)
DNA: CCAGTGTAGACTACTCAATGCCTTCCATTCACCTACCGAGCTAAGCGTTCGACTTAGGTCTGTACTATCCACAGGTCAACC
B6: the binding result in data set [5] is listed as “binds”.

B7: CdeC D1 (ssDNA)
DNA: CCAGTGTAGACTACTCAATGCCGTGGACTGGTCGGGTTTGGATTCGGCAGATGAATCAGTAGTACTATCCACAGGTCAACC
As to B7, the binding result in data set [7] was “binds”.
In data set [8], ACTCAAGGCCGTGGACTGGTCGGGTTTGGAT (ssDNA) [CotA C1.2] gave a dissociation constant Kd of 52.1 nM.
Consider CTTGACCTTTGGAATGGGTGGGAGGGATGGGTACTATCCACAGGTCAACC (ssDNA) [CotE H2.1], for which the affinity in data set [2], expressed as Kd, was 17.5 nM.

B8: CdeC D1.2 (ssDNA)
DNA: ACTACTCAATGCCGTGGACTGGTCGGGTTTGGAATCGGCAGATGAATCAGTAGTAAA
For B8, the binding result in data set [7] is on record as “binds”.
